Tests used:
[1] = target: T1, activated Protein C (APC) (human, UniProt P04070 43-197; P04070 212-461); assay: ratio of rate constants, APC over fXIa
T1 construct: also called human plasma APC
Procedure: APC inhibition is shown for comparison (from Table 1). Standard errors are shown.
In addition we wanted to determine whether FL α₁AT Pitts C232S P2KP1′K affected the intrinsic (contact activation) pathway. Second-order rate constants of inhibition of fXIa by FL α₁AT Pitts C232S and the P2KP1′K variant were measured under pseudo first-order conditions using an excess of serpin over protease. Serpin and protease were incubated together for varying lengths of time and the residual activity determined by adding an excess of chromogenic substrate for the protease (S2366). Plots of residual protease activity over time gave the observed rate constant kobs. The second-order rate constant, k₂, is the slope of the plot of kobs versus serpin concentration (fitted using a linear regression model). Standard errors of the slope are given.

[2] = target: T1, activated Protein C (APC); assay: ratio of rate constants, APC over thrombin (repeated from Table 1)
Procedure: (§1) Rate constants of thrombin and APC inhibition were measured under pseudo-first-order conditions using an excess of serpin over protease (Table 1). Serpin and protease were incubated together for varying lengths of time and the residual activity was determined by adding an excess of chromogenic substrate for the protease (S2238 for thrombin and […] for APC). Residual protease activity was then measured by following the absorbance at 405 nm. Plots of residual protease activity over time gave the observed rate constant kobs. The second-order rate constant, ₖ₂, is the slope of the plot of kobs versus serpin concentration (fitted using a linear regression model). Standard errors of the slope are shown.

[3] = target: T1, activated Protein C (APC); assay: ratio of rate constants, APC over fXa (repeated from Table 3)
Procedure: (§2) The inhibition of APC was reduced but still considerable, especially for the variants of α₁AT and the PCI variants in the presence of heparin. However, the specificity of PCI and α₁AT Pitts is not limited to thrombin and APC. […] In order not to inhibit coagulation, our variants also need to be specific for APC over fXa. We therefore also determined the rate constants of inhibition of PCI and α₁AT and their variants for fXa (Table 3). Rate constants were measured under pseudo-first-order conditions using an excess of serpin over protease. Serpin and protease were incubated together for varying lengths of time and the residual activity determined by adding an excess of chromogenic substrate (S2222) for the protease. Plots of residual protease activity over time gave the observed rate constant kobs. The second-order rate constant, k₂, is the slope of the plot of kobs versus serpin concentration (fitted using a linear regression model). Standard errors of the slope are shown (Table 3).

[4] = target: T1, activated Protein C (APC); assay: pseudo-first-order inhibition kinetics, residual chromogenic activity
Procedure: as §1

[5] = target: T2, thrombin (UniProt P00734 328-622); assay: as above
Procedure: as §1

[6] = target: T1, activated Protein C (APC); assay: ratio of rate constants, APC over thrombin
Procedure: as §1

[7] = target: T1, activated Protein C (APC); assay: ratio of rate constants, APC over fXa
Procedure: as §2

[8] = target: T1, activated Protein C (APC); assay: pseudo-first-order inhibition kinetics (repeated from Table 1)
Procedure: as §1

[9] = target: T2, thrombin; assay: as above
Procedure: as §1

[10] = target: T3, fXa (UniProt P00742 41-179; P00742 235-488); assay: pseudo-first-order inhibition kinetics, residual chromogenic activity (S2222)
T3 construct: also called factor Xa
Procedure: as §2

[11] = target: T2, thrombin; assay: pseudo-first-order inhibition kinetics, residual chromogenic activity (S2238)
Procedure: as §1

T1 sequence (P04070 43-197, chain 1 of 2): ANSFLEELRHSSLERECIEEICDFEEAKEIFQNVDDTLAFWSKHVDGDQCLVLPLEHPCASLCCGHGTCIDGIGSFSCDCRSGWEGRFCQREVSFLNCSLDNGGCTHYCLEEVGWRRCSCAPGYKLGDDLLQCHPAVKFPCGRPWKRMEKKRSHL
T1 sequence (P04070 212-461, chain 2 of 2): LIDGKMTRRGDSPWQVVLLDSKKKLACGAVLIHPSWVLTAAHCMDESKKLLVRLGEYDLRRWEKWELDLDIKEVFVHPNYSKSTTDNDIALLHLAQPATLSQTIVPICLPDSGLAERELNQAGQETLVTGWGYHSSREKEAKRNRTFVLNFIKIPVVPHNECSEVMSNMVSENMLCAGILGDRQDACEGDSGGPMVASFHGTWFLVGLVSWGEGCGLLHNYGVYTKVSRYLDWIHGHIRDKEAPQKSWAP
T3 sequence (P00742 41-179 limits assumed, form in doubt, chain 1 of 2): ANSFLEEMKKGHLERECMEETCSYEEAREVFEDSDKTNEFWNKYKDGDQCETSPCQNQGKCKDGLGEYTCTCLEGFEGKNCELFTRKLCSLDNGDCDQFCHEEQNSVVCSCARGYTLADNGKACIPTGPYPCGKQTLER
T3 sequence (P00742 235-488 limits assumed, form in doubt, chain 2 of 2): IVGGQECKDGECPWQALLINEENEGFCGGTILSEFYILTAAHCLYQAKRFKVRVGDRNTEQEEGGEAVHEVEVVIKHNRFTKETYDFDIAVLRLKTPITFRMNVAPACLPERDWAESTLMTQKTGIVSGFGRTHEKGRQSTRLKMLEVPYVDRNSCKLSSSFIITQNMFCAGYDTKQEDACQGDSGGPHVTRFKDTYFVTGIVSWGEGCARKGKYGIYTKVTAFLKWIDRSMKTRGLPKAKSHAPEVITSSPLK

Binder	inhibition of APC/fXIa [1]	inhibition of APC/thrombin [2]	inhibition of APC/fXa [3]	second-order rate constant of inhibition [4]	second-order rate constant of inhibition [5]	fold inhibition APC/thrombin [6]	fold inhibition APC/fXa [7]	second-order rate constant of inhibition [8]	second-order rate constant of inhibition [9]	second-order rate constant of inhibition [10]	binding result [11]
FL α1AT Pitts C232S (other, Serpin; E. coli, SUMO tag removed; also called α1-antitrypsin Pittsburgh) SDPQGDAAQKTDTSHHDQDHPTFNKITPNLAEFAFSLYRQLAHQSNSTNIFFSPVSIATAFAMLSLGTKADTHDEILEGLNFNLTEIPEAQIHEGFQELLRTLNQPDSQLQLTTGNGLFLSEGLKLVDKFLEDVKKLYHSEAFTVNFGDTEEAKKQINDYVEKGTQGKIVDLVKELDRDTVFALVNYIFFKGKWERPFEVKDTEEEDFHVDQVTTVKVPMMKRLGMFNIQHSKKLSSWVLLMKYLGNATAIFFLPDEGKLQHLENELTHDIITKFLENEDRRSASLHLPKLSITGTYDLKSVLGQLGITKVFSNGADLSGVTEEAPLKLSKAVHKAVLTIDEKGTEAAGAMFLEAIPRSIPPEVKFNKPFVFLMIEQNTKSPLFMGKVVNPTQK	0.3 fold	0.4 fold	2.6 fold	108 mM⁻¹ s⁻¹	293 mM⁻¹ s⁻¹	0.4 fold	2.6 fold	108 mM⁻¹ s⁻¹	293 mM⁻¹ s⁻¹	41.3 mM⁻¹ s⁻¹	–
FL α1AT Pitts C232S P2KP1′K (other, E. coli, SUMO tag removed; also called P2KP1′K α1AT; P2KP1′K mutant of α1AT Pitts) SDPQGDAAQKTDTSHHDQDHPTFNKITPNLAEFAFSLYRQLAHQSNSTNIFFSPVSIATAFAMLSLGTKADTHDEILEGLNFNLTEIPEAQIHEGFQELLRTLNQPDSQLQLTTGNGLFLSEGLKLVDKFLEDVKKLYHSEAFTVNFGDTEEAKKQINDYVEKGTQGKIVDLVKELDRDTVFALVNYIFFKGKWERPFEVKDTEEEDFHVDQVTTVKVPMMKRLGMFNIQHSKKLSSWVLLMKYLGNATAIFFLPDEGKLQHLENELTHDIITKFLENEDRRSASLHLPKLSITGTYDLKSVLGQLGITKVFSNGADLSGVTEEAPLKLSKAVHKAVLTIDEKGTEAAGAMFLEAIKRKIPPEVKFNKPFVFLMIEQNTKSPLFMGKVVNPTQK	32.2 fold	–	126 fold	15.1 mM⁻¹ s⁻¹	–	–	126 fold	15.1 mM⁻¹ s⁻¹	–	0.12 mM⁻¹ s⁻¹	no binding (tested: 4 h)

Reference: patent publication US20160311887A1 (CAMBRIDGE ENTERPRISE, published 2016)
